Changes are numbered by the printed parent chain.
Experiments:
Assay in all cases: SPR, KD relative to WT C2;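 note: biacore SPR at 37 °C, anti-C2 mAbs captured on anti-human IgG chips with alanine or serine point mutants of C2 as analyte, KD from 1:1 fit compared with wild-type C2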
[1] = biological target: T1, human C2 L279A (human, UniProt P06681 21-752)
T1 sequence: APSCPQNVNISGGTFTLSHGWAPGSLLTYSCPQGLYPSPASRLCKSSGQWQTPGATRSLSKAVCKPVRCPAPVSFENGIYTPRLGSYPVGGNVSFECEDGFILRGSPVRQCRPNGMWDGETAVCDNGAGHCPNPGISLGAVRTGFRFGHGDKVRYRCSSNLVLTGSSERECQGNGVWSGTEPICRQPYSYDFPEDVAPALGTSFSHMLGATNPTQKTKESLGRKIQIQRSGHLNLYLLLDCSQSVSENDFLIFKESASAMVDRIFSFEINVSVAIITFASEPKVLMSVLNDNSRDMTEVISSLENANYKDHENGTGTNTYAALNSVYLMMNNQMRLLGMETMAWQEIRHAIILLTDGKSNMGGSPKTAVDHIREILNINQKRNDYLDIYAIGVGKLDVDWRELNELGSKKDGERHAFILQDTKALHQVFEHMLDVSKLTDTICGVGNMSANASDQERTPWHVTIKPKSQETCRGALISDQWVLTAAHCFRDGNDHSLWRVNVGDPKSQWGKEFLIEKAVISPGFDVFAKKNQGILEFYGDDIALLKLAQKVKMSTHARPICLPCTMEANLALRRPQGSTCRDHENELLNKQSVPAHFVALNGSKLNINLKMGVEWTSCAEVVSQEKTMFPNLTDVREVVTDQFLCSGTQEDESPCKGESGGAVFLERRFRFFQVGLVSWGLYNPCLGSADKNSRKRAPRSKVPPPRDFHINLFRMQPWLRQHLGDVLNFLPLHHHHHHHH

[2] = biological target: T2, human C2 V455A (human, UniProt P06681 21-752)
T2 sequence: T1 sequence with A259L, V435A

[3] = biological target: T3, human C2 R434A (human, UniProt P06681 21-752)
T3 sequence: T1 sequence with A259L, R414A

[4] = biological target: T4, human C2 E324A (human, UniProt P06681 21-752)
T4 sequence: T1 sequence with A259L, E304A

B1: RF16-242 (antibody, human IgG4 S228P, lambda, V domains shown)
VH: EVQLLQSGAEVKKPGESLKISCKGSGYSFTSYWIGWVRQMPGKGLEWMGIIYPGDSDTRYSPSFQGQVTISADKSISTAYLQWSSLKASDTAMYYCARRGHYGDYFDYWGQGTLVTVSS
VL: SYELTQPPSVSVSPGQTARITCSGDALPKKYAYWYHQKSGQAPVLVIYEDRRRPSEIPERFSGSSSGTMATLTITGAQVEDEGVYFCYSRDRAGNQRVFGGGTQLTVLG
notes: pH-dependent anti-C2 antibody from a phage display library
Fold diff [1]: 7 fold | Fold diff [2]: 1 fold | Fold diff [3]: 14 fold | Fold diff [4]: 2 fold
